Laboratory results: the nanobody polyreactivity screen of Harvey et al. (2022)

Assay: yeast display, Sf9 membrane polyspecificity reagent, FACS + sequencing; frameworks hold sequencing errors
In short: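 Sorting gates, low and high (top ~1%), were placed on anti-HA fluorescence to track expression and on streptavidin fluorescence to track reagent binding. A clone's polyreactivity label is taken from the gate it came out of. The reagent was 10% biotinylated, detergent-solubilized Sf9 membrane, applied for 1 hour at 4 °C to galactose-induced yeast display cells.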

Q: For “QLQLVESGGGLVQARGSLRLSCASSGSPFEGYAMGRSRQAPGKERELVARITIGGSTNYADSVKGRFTISRDNAKNSVYLQMNSLKPDDTAVYYCAADYRWGYYFTFYYWGQGTQVTVSY”, which “polyreactivity (PSR sort gate)” value is on record?
A: high polyreactivity

Q: Which “polyreactivity (PSR sort gate)” value does the source give for “QVQLVESGGGLVQAGGSLRLSCAASGRTSSANVMGGYRQAPGKDRELVAAISWSGGSTYYADSVKGRFTISRDNAKNTVYLQMNSRKPEDTAVYYCAADYYKYYYGGDQLSITRYDYWGQGTQVTVSS” here?
A: low polyreactivity

Q: With “QVQLVESGGGLVQAGGSLRLSCAASGITFRGYAMGWYRQAPGKERELVAAINSGGSTNYADSVKGRFTISRDNAKNTVYLQMNSLKPEDTAVYYCAAGWYYYWGNYLSYAYDYWGQGTQVTVSS” as the sequence, how does the “polyreactivity (PSR sort gate)” value read?
A: high polyreactivity

Q: For “QVQLVESGGGLVQAGGSLRLSCAASGSTFSNYAMGWYRQAPGKDRELVAGIDWSGGSTYYADSVKGRFTISRDNAKNTVYLQMNSLKPEDTAVYYSAKRVWYHGRKLRGYYWGQGTQVTVSS”, which “polyreactivity (PSR sort gate)” value is on record?
A: low polyreactivity

Q: With “QVQLVESGGGLVKAGGSLRISCAASGRTFGLYAMGWYRQAPGKERELVAAISWGGGRTYYADSVKGRFTISRDNAKNTVYLQMNSLNPEETAVYYCNAVYSPRYYVGGYDYWGQGTLVTVSS” as the sequence, how does the “polyreactivity (PSR sort gate)” value read?
A: high polyreactivity

Q: For “QVQLVESGGGLVQAGGSLRLSCAASGFTFAYYAMGWDRQAPGKERELVAAINWSGTRTSYADSVKGRFTISRDNAKNTVYLQMNSLKPEDTAVYYCAADSSLRYDYWGQGTQVTVSS”, which “polyreactivity (PSR sort gate)” value is on record?
A: high polyreactivity

Q: Which “polyreactivity (PSR sort gate)” value does the source give for “QVQLVESGGGLVQAGGSLRLSCAASGSIFTWYAMGWYRLAPGIDRELVAAITRGGSTYADSVTGRFTISRDNAKNTVYLQMNSLKPEDTAVYYCNAVYGVYDFNYWGQGTQVTVSS” here?
A: low polyreactivity

Q: With “QVQIVESGGVLVQAGGSLRLSCAASGRIFGSYAMGWYRQAPGKERELVAGIRSVGSTNYADSVKGRFTISRDNEKNTVYLQMNSLKPEDTAVYYCAACLWHPTFGYWGQGTQVTVSS” as the sequence, how does the “polyreactivity (PSR sort gate)” value read?
A: low polyreactivity

Q: For “QVQLVESGGGLVQAGGSLRLSCAASGSTFYLYAMGWYRQAPGKEREFVAAISWSGGRTYYAHSVKGRFTISRDYAKNTVYLQMNSLKPEDTAVYYCAARRRYTWQYTSYDMGYWGQGTQVTVSS”, which “polyreactivity (PSR sort gate)” value is on record?
A: low polyreactivity

Q: Which “polyreactivity (PSR sort gate)” value does the source give for “QVLLVESGGGLVQAGGSLRLSCAASGSTFLRYTMGWYRQAPGKERELVAAINYGGGSTYYADSVKGRFTISRDNAKNTVYLQMNSLKPEDTAVYYCAAGFFRSAHGGKFYYWGQGTQVTVSS” here?
A: high polyreactivity

Q: With “QVQLVESGGGLVQPGGSLRLSCAASGFIYSYYAMGLYRPAPGKERELVAVITRSVGSTYYADSVKGRFTISRDNAKNTVYLQMNSLKPEYTAVYYCAAGYFYHFSRYTNRYGYWGQGTQVTVSS” as the sequence, how does the “polyreactivity (PSR sort gate)” value read?
A: high polyreactivity

Q: With “QVQLVESGGGLVQAGGSLRLSCAASGRTFSSTAMGWYRPAPGKERELVATITYSGGSTYYADSVKGRFTISRDNAKNTVYLQMISLKPEDCAVYYGAVRVSTYMTKYYYWGQGTQVTVSS” as the sequence, how does the “polyreactivity (PSR sort gate)” value read?
A: low polyreactivity

Q: With “QVQLVESGGGLVQAGGSLRLSCAASGRTFTGNAMGWYRPAPGKERELVADNNLSGGDTYYADSVKGRFTISRDNAKNTVYLQMNSLKPEDTAVYYCNARVRDKRTGRYGYWGQGTQVTVSS” as the sequence, how does the “polyreactivity (PSR sort gate)” value read?
A: high polyreactivity

Q: With “QVQLVESGGGLVQAGGSLRLSCAASGSIFGAYAMGWYRQAPGKETELVASITGNGGSTYYADSVKGRFTISRDNAKNTVYLQMNSLKPEDTAVYYCAADDYSTRYRWFYYGSPYYYWGQGTQVTVSS” as the sequence, how does the “polyreactivity (PSR sort gate)” value read?
A: high polyreactivity

Q: Which “polyreactivity (PSR sort gate)” value does the source give for “QVQLVESGGGLVQAGGSLRLSCAASGGTFFVYMGRYRQAPGKERELVAAITGGGGTYYADSVKGRFTISRDNAKNTVYLQMNSLKPEDTAVYYCATRGATSTVPEGDSWGQGTHVTVSS” here?
A: low polyreactivity

Q: Which “polyreactivity (PSR sort gate)” value does the source give for “QVQHVESGGGVVQAGGSLRFSCAASGRIFYRYAMGWYRPAPGKERELVAAITIGGRTNYADSVKGRFTISRDNAKTTVYLQMNSLKPEDTAVYYCAVVLYTRYPPRVRYYYWGQGTQVTVSS” here?
A: high polyreactivity

Q: For “QVQLVESGAGLVQAGGSLRLSCAASGRTFIGNAMGWYRQAPGKERELVAAISSSGGNTYYADSVKGRFTISRDNAKNTVYLQMNSLKPEDTAVYYCAVEVRTFVTYGRREYYWGQGTQVTVSS”, which “polyreactivity (PSR sort gate)” value is on record?
A: high polyreactivity

Q: With “QVQLVESGRGLVQAGGSLRLSCAASGSILSINGMGWYRQAPGKERELVATIDGSDGSTFYADSVKGRFTISRDNAKNSVYLQMNSQKPEDTAVYYCAAENFWQTKEYDYWGQGTQVTVRS” as the sequence, how does the “polyreactivity (PSR sort gate)” value read?
A: low polyreactivity

Q: Which “polyreactivity (PSR sort gate)” value does the source give for “QVQLVESGGGLVQAGGSLRLSCAASGFIFTQYAMGWYRQAPGKERELVAGITSSGNTYYADSVKGRFTISRDNAKNTVYLQMNSLKPEDTAVYYCAARSYVRRFDGGYWGQGTQVTVSS” here?
A: high polyreactivity

Q: Which “polyreactivity (PSR sort gate)” value does the source give for “QVQLVESGGGLVQAGGSLRLSCAASGSIFFKYTMGWYRQAPGKEREFVAAISYSGGRTYYADSVKGRFTISRDNAKNTVYLQMNSLKPEDTSVYYCATRDEITHGDRMDYWGQGTQVTVSS” here?
A: low polyreactivity

Q: Which “polyreactivity (PSR sort gate)” value does the source give for “QVQLVESGGGLVQAGGSLRLSCAASGFTFYIYAMGWYRQAPGKERELVAAISSGGGRTYYADSVKVRFTISRDNAKNTVYLQMTSLKPEDTAVYYCAARGRAFSYKNYGSDYWGQVTQVTVSS” here?
A: high polyreactivity

Q: With “QVQLVESGGGLVQAGGSLRLSCAASGLTFRYYAMGWYRQAPGKERELVAAITRRGSTYYADSVKGRFTISRDNAKNTVYLQMISLKPEDTAVYYCATVTGFHSSPLRDLDYWGQGTQVTVSS” as the sequence, how does the “polyreactivity (PSR sort gate)” value read?
A: high polyreactivity

Q: Which “polyreactivity (PSR sort gate)” value does the source give for “QVQLVESGGGLVQAGGSLRLSFAASGSTFPSYAMGWYRQAPGKERELVAAITKGGSTTYADSVKGRFTISRDNAKNTVYLQMNSLKPEDTAVYYCAARYYYYYYYIRRDYWGQGTQVTVSS” here?
A: low polyreactivity

Q: For “QLQLVDSGGGLVKAGGSLRLSCAASGRTFYRYAMGWYRKAPGKERELVAAINFSTGSTYYADSVKGRFTISRDNAKNTVYLQMNSLKPEDTAVYYCAVPYGSYVGYDYWGQGTQVTVSS”, which “polyreactivity (PSR sort gate)” value is on record?
A: low polyreactivity

Q: With “QVQLVESGGGLVQAGGSLRLSCAASGTNFRYYTMGWYRQAPGKERELVAAITYSGGTTYYADSVKGRFTISRDNAKNTVYLQMNSLKPEDTAVYYCAATFQANYFSGYYTVYLSDYWGQGTQVTVSS” as the sequence, how does the “polyreactivity (PSR sort gate)” value read?
A: low polyreactivity

Q: With “QVQLVESGGGLVQAGGSLRLSCAASGSTFVYMGWYRQAPGKEREFVAAITWSGGSTYYADSVKGRFTISRDNAKNTVYLQMNSLKPEDTAVYYCNAVSDIPGWARYYYWGQGTQVTVSS” as the sequence, how does the “polyreactivity (PSR sort gate)” value read?
A: low polyreactivity

Q: Which “polyreactivity (PSR sort gate)” value does the source give for “QVQLVESGGGLVQAGGSLRLSCAASGRTFTVYAMGWYRQAPGKERELVAAINYSGGRTYYADSVKGRFTISRDNAKNTVYLQMNSLKPEDTAVYYCAAYVYQSSPRYSRYGGYDYWGQGTQVTVSS” here?
A: low polyreactivity

Q: For “QVQLVESGGGLVQQGGILRLSCASSGSNFILNEMGWSRQAPRKDRELVATISSSDTSTYYADSVKGRFTISRDNAKNTVYVQMNSLKPEDTAVYYCNADYYTTSYLQRVYHYGVEYDYWGQGTQVTVSS”, which “polyreactivity (PSR sort gate)” value is on record?
A: low polyreactivity

Q: Which “polyreactivity (PSR sort gate)” value does the source give for “QVKLVESGGGLVQAGGSLRLSCAASGRTLGGYAMRWYRQAPGKERQLVAAITRRGGSRYYADTVKGRFTISRDNAKNTVYLQMNSLKPEDSAVYYCAARWYARSLTRFNYWGKGTQVTVSS” here?
A: high polyreactivity

Q: For “QVQLVESGGGLDQAGGSLRLSCAASGRTFGVYAMGWYRQAPGKERELVAAITGRGGSTYYADSVKGRFTISRDNAKNTVYLQMNSLKPEDTAVYYCNAELYEYQSWDDYWGQGTQVTVSS”, which “polyreactivity (PSR sort gate)” value is on record?
A: low polyreactivity

Q: For “QVQLVESGGGLVQAGGSLRLSCAASGFTFFAYTMGWYRQAPWKERELVAAISWSGAGTYYADSVKGRFTISRDNAKNTVYLQMNSLKPEDTAVYYCNGVPYSGFDYWGQGTQVTVSS”, which “polyreactivity (PSR sort gate)” value is on record?
A: high polyreactivity

Q: With “QVQLVESGGGLVQAGGSLRLSCAASGRIFSAYAMGWYRQAPGKERELVAAISSGGRTYYADSVKGRFTISRDNAKNTVYLEMYRLKPEDTAVYFCNAVALWGRDYGYWGQGTQVSVSS” as the sequence, how does the “polyreactivity (PSR sort gate)” value read?
A: high polyreactivity

Q: Which “polyreactivity (PSR sort gate)” value does the source give for “QVQLLESGGGLVQAGGSLRLSCAASASTFWFYAMGWYIQAPGKERELVAAISSTGSTNYADSVKGRFTISRDNAKNTVYLQMNSLKPEDTAVYYCATQEGPHKLDPRGYYWGQGTQVTVSS” here?
A: low polyreactivity

Q: With “QVQLVESGGGLVQAGGSLRLSCAASGSIFRYYAMGWYRQAPGKERELVAGISRSGGSTYYADSEKGRFTISRDNAKNTVYLQMNSLKPEDTAVYYCAATAYSPRGKRYDSWGQVTQVTVSS” as the sequence, how does the “polyreactivity (PSR sort gate)” value read?
A: high polyreactivity

Q: For “QVQLVESGGGLVQAGGSLRLSCAASGITFDWYTLGWYSQAPGKERELVAAISRNGGSTYYADSVKGRFTISRDNAKNTVYLQMNSLKPEDTAVYYCAAPLTYLYYGYDYWGQGTQVTVSS”, which “polyreactivity (PSR sort gate)” value is on record?
A: high polyreactivity

Q: With “QVQLVESGGGLVQAGGSLRLSCAASGSIFTSYAMGWYRQAPGKERELVAAITSTGGSTYYADSVKGRFTISRDPAKNTVYLLMNSLKPEDTAVYYCNADGGTPYDYWGQGTQVTVSS” as the sequence, how does the “polyreactivity (PSR sort gate)” value read?
A: low polyreactivity

Q: Which “polyreactivity (PSR sort gate)” value does the source give for “QVHLVESGGGLVQAGGSLRLSCAASGSTFYANAMGWYRQAPGKDRELVAVIRWSGGSTYYADSVKGRFTISRDNAKNTDYFQINSLKPEDTAVYYCNADFYRVAYLRRYSHFDYWGQGTQVTVSS” here?
A: high polyreactivity

Q: For “QVQLVESGGGLVQAGGSLRLSCAASGRIFYGNDRGWYRQAPGKERELVAAITWSGGSTYYADSVKGRFTISRDNAKNTVYLQMNSLKPEDTAVYYCAAVPRRGWDIRRYDSWGQGTQVTVSS”, which “polyreactivity (PSR sort gate)” value is on record?
A: high polyreactivity

Q: With “QVQLVESGGGLVQAGGSLRLSCAASGFILLDYAMRWYRQAPGKERELVAAISWSGARTYYADSVKGRFTISRDNAKNTVYLQMNSLKPEDTAVYYCATRYRWTPYDYWGQGTQVTVSS” as the sequence, how does the “polyreactivity (PSR sort gate)” value read?
A: low polyreactivity

Q: Which “polyreactivity (PSR sort gate)” value does the source give for “QVQLVESGGGFVQAGGSLRLSCAASGSTFFVYAMGWYRQAPGKERELVASIRWRGSSTYYADSVKGRFTISRDNAKNTVYLQMNSLKPEDTAVYYCAATSYNGYGYWGQGTQVTVSS” here?
A: high polyreactivity

Q: Which “polyreactivity (PSR sort gate)” value does the source give for “QVQLVESGGGLVQAGGSLRLSCAASGRTFTYYAMGWYIQAPGKERELVAAITSGGRTYYADSVKGRFTISRDNAKNHVYLQMNSLKPEDTAVYYCAARRIRDYYRSYDYWGQGTQVTVSS” here?
A: high polyreactivity

Q: Which “polyreactivity (PSR sort gate)” value does the source give for “QVQLVESGGGLVQAGGSLRLSCAASGSIFIYYAMGWYRQAPGKERELVADITFSAGSNTYYADSVKGRFTISRDNAKNTVYLQMNSLKPEDTAVYYCNADRGFIGSITEYDYWGQGTQVTVSS” here?
A: low polyreactivity

Q: For “QVQIVESGGGLVQAGGSLRLSCAASGSTFRLYVMGWYRQAPGKERELVARISSRGGSTYYADSVKGRFTISRDNAQNTVYLQMTSLKPEDTAVYYCAKDVDLDTWKYDYWGQGTKVTVSS”, which “polyreactivity (PSR sort gate)” value is on record?
A: low polyreactivity
